The DeepSol protein solubility set

experiment: soluble on expression in E. coli; label from the status in PepcDB or PDB records

Row | Sequence | soluble on expression in E. coli
1 | MGSDKIHHHHHHMRHIAHYCVAHPAGSMVVPGTRKKRELLPSAAPWRLSGVFVSLDEIRKDWTTLGAAAPLWAVCVDPAKRHGGWDDDEFLASGRAEIDAAMARLAELGIAHGRERALDFGCGAGRLSNALAAYFDRVVGVDISAPMLAEARRLDRSGGRIDFLLNDAPDLKIFPDASFDLVYTDLVLQHLPPPLARGYLAEFARVLRPGGALVAGMPATERRTVKGLVFRYAPHRVIRFIQRVLLGYPAPMRMHTMPPEQMRELLASHGVRVVSAEEYAGDDHGTHWVHMRYYARKDPGAAL | not soluble
2 | MKRISPLRSLVACRWTNRARKRLAAVGLASICLLSACAPKFDKGEEVVQDKGSKQQEAVIPKYNIADSYYRVILPFKPSGARGEVVNDLNTRLDVDEFETGLMRLATEQFPSDEYLFQEGQYLDSETVGKWLARKKTTRQLKEEKMKPEDNLGLNPPISDTGTNEQKNKQSPIYLASILEHDYLVKIDNDKVKLGGIAIGLALNSVHYYSTEQGYPREVKIKDDVIEREGKRIAAEVLKRLRSMKGLGSVPITIALYKQAPRSSVVPGHFFAVAHVDGGDSTIDEWEAVNEEYYLFPSDEAEENHRDDWLKFNNFKSDVEDFFPNYTGIVGRGLYVNDQLQKLTINITMPFYGKAEVIGFTQYVTGLVMEKFPDYITVNVYIASAGQPESLIVRQAKADEPFVHIYQ | not soluble
3 | MKVGIVLGTKPSNPLEFWVGVEKGKFLQLDDVVVVNSKIDGTNEEIKFYGIVQEVIKYLEGVELVYDAQLVNSGVVPANLAYMARVSVTRIEPEVFIPPTPGDYVFKAEGIDFEKALYYDNMKRKIPAGLTRNGEVVYLNYDFINGREGAHISISGMSGVATKTSYALFLLYSIFQKADDRTKIHGIIFNVKGKDLLWIDKKNKRFTKEHREAFEKLGLPPEPFKNVAFWAPPEQEWSEIPSSGERLEGVFPYKWSMKDFAQEGLLRFLFAEGDEGATSLHYVIDRVSEKLQQLAKESPGDVLLDENGQEINSLGDLLKLLHEVIEDRETKRDPDRYREWFGTAATATAYAFLRRFHHAASHCKHLVHGNKSRHIDWRSHQLNVIDISDLHGIAKMFVVGSILKKIFREKEETGNPYPKIFVVLDELNKYAPKDKWSPIKEILLDIAERGRSLGVILIGAQQTASEIEKRIVANAAVKVTGRLDSSEVLSKEYEFLTGNFRQRAIMLKKGTMILYQPDIPNPVMIKFPLAPWATKKEEVEEEVSAPKEFDQF | soluble
4 | SLVLMSETKNELEDLLEKAATEPAHRPAFFRTLLESTVWVPGTAAQGEAVVEDSALDLQHWEKEDGTSVIPFFTSLEALQQVVEDEQAFVVMPVRTLFEMTLGETLFLNAKLPTGKEFMPREISLLIGEEGNSLSSQEVLEGGESLILSEVAEPPVQMIDSLTTLFKTIKPVKRAFICLIKESEEAQPNLLIGIEADGDIEEIIQAAGSVATDTLPGDEPIDICQVKKGEKGISHFITEHIAPFYERRWGGFLRDFKQNRII | soluble
5 | MLGRRAVSVHRFLSRAARQSVTAASSAQPSLQAKTSLLEPLVQNVRITSSANFHMSAVRMSDVITVEGPAFAESISEGDIRWLKQKGDHVNEDELVAEIETDKTSVEVPAPQAGTIVEFLVEDGAKVTAKQKLYKLQPGAGGGSSSAPAKEEPKSAPAKEESKPAPAKEDSKPAVTAAAPPKPVSGDIPKSAPPVARPPSTPSSSTPVGAVPVTRVVVPKGVDPSHAITGARDEVRVKANRMRMRIAQRLKDAQNTYAMLTTFNEIDMSSLIEMRKTYQKDFVAKHGVKLGMMSPFVRAAAYALQESPVVNAVLDENEIVYRHFVDISVAVATPKGLVVPVLRNVESMNYAQIELELANLGVKARDGKLAVEDMEGGTFTISNGGVFGSMFGTPIINPPQSAILGMHGVFDRVVPVNGKPEIRPIMQIALTYDHRLIDGREAVTFLKKIKTAVEDPRIMFMNL | not soluble
6 | MLSGREMSMSHINYNHLYYFWHVYKEGSVVGAAEALYLTPQTITGQIRALEERLQGKLFKRKGRGLEPSELGELVYRYADKMFTLSQEMLDIVNYRKESNLLFDVGVADALSKRLVSSVLDAAVVEDEQIHLRCFESTHEMLLEQLSQHKLDMIISDCPIDSTQQEGLFSMKIGECGVSFWCTNPLPEKPFPACLEERRLLIPGRRSMLGRKLLNWFNSQGLNVEILGEFDDAALMKAFGATHNAIFVAPSLYANDFYNDDSVVEIGRVENVMEEYHAIFAERMIQHPAVQRICNTDYSALFTPASK | not soluble
7 | MVCFASLFEEVSMHTCPLCHNQHTRHYFEDKHREYLQCEQCYLVFVNPDQRLDAETEKAHYDLHENNPEDIGYRRFLSRIADPITERISPQSNGIDFGCGPGPTLSLMLEEAGHNMALYDIYYHPDTAVLEKQYDFMTATEVIEHLYHPDVVWKQWLNLVKPGGWIGLMTKMVIDVEAFKSWHYKNDPTHVVFFSRDTFQFLAERDKLELEFIGNDVILLRKTQLEHHHHHH | soluble
8 | MFPAQEEADRTVFVGNLEARVREEILYELFLQAGPLTKVTICKDREGKPKSFGFVCFKHPESVSYAIALLNGIRLYGRPINVQYRFGSSRSSEPANQSFESCVKINSHNYRNEEMLVGRSSFPMQYFPINNTSLPQEYFLFQKMQWHVYNPVLQLPYYEMTAPLPNSASVSSSLNHVPDLEAGPSSYKWTHQQPSDSDLYQMTAPLPNSASVSSSLNHVPDLEAGPSSYKWTHQQPSDSDLYQMNKRKRQKQTSDSDSSTDNNRGNECSQKFRKSKKKKRY | soluble
9 | MENRKLAVLIDADNAQSSLIAELLAEVAKYGTAIVKRAYGDWTTTQLKGWKEVLHQYAISPIQQFAYTKGKNSTDSALIIDAMDLLYTGNFDGFCLVSSDSDFTRLATRLREGGLTVIGLGEQSKTPRPFIAACDKFVFTEILRPAPPAKPKPETAATADKPKARSSRTRAKAAPHKEKHPLQDMFTSAIEAVARDSGWAELSAVGSYLAKNDPSFDPRNWGHGRLSQMVKKLDFLTVQESRNGSKLHSEIRLRHDGEAAVAEPAAPVETPQPSPSEEAAPPPRKKRSPRKKISPAGLEHHHHHH | soluble
10 | MKQRHGNSLLTTDTKCISCRLGVPLSPQRRFQAIRIEEVKLRWFAFLIVLLAGCSSKHDYTNPPWNAKVPVQRAMQWMPISQKAGAAWGVDPQLITAIIAIESGGNPNAVSKSNAIGLMQLKASTSGRDVYRRMGWSGEPTTSELKNPERNISMGAAYLNILETGPLAGIEDPKVLQYALVVSYANGAGALLRTFSSDRKKAISKINDLDADEFLDHVARNHPAPQAPRYIYKLEQALDAM | not soluble
